From ChEMBL document CHEMBL2074236, “Renal organic cation and nucleoside transport” (Biochem Pharmacol, 2002) come the findings set out here.

Substrate in this series: Nc1ncnc2c1ccn2[C@H]1C[C@H](O)[C@@H](CO)O1
Nature of the series: TP_TRANSPORTER: uptake (pH 5.4) in Xenopus laevis oocytes. Type of series: functional, cell-based, Oocyte.

B1: Solute carrier family 22 member 2 (Rattus norvegicus) (protein)
chain: MSTVDDILEHIGEFHLFQKQTFFLLALLSGAFTPIYVGIVFLGFTPDHHCWSPGAAKLSQRCGWSQAEELNYTVPGLGPSDEASFLSQCMRYEVDWNQSTLDCVDPLSSLAADRNQLPLGPCEHGWVYNTPGSSIVTEFNLVCAHSWMLDLFQSVVNVGFFIGAMMIGYLADRFGRKFCLLVTILINAISGALMAISPNYAWMLVFRFLQGLVSKAGWLIGYILITEFVGLGYRRMVGICYQIAFTVGLLILAGVAYVIPNWRWLQFAVTLPNFCFLLYFWCIPESPRWLISQNKIVKAMKIIKHIAKKNGKSVPVSLQNLTPDEDAGKKLNPSFLDLVRTPQIRKHTLILMYNWFTSSVLYQGLIMHMGLAGDNIYLDFFYSALVEFPAAFIIILTIDRVGRRYPWAVSNMVAGAACLASVFIPDDLQWLKITIACLGRMGITMAYEMVCLVNAELYPTYIRNLGVLVCSSMCDIGGIITPFLVYRLTDIWMEFPLVVFAVVGLVAGALVLLLPETKGKALPETIEDAENMQRPRKKKEKRIYLQVKQADRPLS
For B1, the Km (as a rule, the concentration of substrate that gives half-maximal velocity) came out at 212 µM.

B2: Solute carrier family 22 member 1 (Rattus norvegicus) (protein)
chain: MPTVDDVLEQVGEFGWFQKQAFLLLCLISASLAPIYVGIVFLGFTPGHYCQNPGVAELSQRCGWSQAEELNYTVPGLGPSDEASFLSQCMRYEVDWNQSTLDCVDPLSSLVANRSQLPLGPCEHGWVYDTPGSSIVTEFNLVCGDAWKVDLFQSCVNLGFFLGSLVVGYIADRFGRKLCLLVTTLVTSVSGVLTAVAPDYTSMLLFRLLQGMVSKGSWVSGYTLITEFVGSGYRRTTAILYQMAFTVGLVGLAGVAYAIPDWRWLQLAVSLPTFLFLLYYWFVPESPRWLLSQKRTTRAVRIMEQIAQKNGKVPPADLKMLCLEEDASEKRSPSFADLFRTPNLRKHTVILMYLWFSCAVLYQGLIMHVGATGANLYLDFFYSSLVEFPAAFIILVTIDRIGRIYPIAASNLVTGAACLLMIFIPHELHWLNVTLACLGRMGATIVLQMVCLVNAELYPTFIRNLGMMVCSALCDLGGIFTPFMVFRLMEVWQALPLILFGVLGLTAGAMTLLLPETKGVALPETIEEAENLGRRKSKAKENTIYLQVQTGKSSST
B2: the Michaelis-Menten constant (Km) was 23 µM.
